In patent publication US20060046271A1 (VANDERBILT UNIVERSITY, published 2006):

Target: α2bβ3 receptor (mouse (endogenous, tumor-bearing …, UniProt Q9QUM0 32-1033; O54890 26-787)
Assay: cell-based or functional assay

Chain of α2bβ3 receptor (mouse (Q9QUM0 32-1033, chain 1 of 2): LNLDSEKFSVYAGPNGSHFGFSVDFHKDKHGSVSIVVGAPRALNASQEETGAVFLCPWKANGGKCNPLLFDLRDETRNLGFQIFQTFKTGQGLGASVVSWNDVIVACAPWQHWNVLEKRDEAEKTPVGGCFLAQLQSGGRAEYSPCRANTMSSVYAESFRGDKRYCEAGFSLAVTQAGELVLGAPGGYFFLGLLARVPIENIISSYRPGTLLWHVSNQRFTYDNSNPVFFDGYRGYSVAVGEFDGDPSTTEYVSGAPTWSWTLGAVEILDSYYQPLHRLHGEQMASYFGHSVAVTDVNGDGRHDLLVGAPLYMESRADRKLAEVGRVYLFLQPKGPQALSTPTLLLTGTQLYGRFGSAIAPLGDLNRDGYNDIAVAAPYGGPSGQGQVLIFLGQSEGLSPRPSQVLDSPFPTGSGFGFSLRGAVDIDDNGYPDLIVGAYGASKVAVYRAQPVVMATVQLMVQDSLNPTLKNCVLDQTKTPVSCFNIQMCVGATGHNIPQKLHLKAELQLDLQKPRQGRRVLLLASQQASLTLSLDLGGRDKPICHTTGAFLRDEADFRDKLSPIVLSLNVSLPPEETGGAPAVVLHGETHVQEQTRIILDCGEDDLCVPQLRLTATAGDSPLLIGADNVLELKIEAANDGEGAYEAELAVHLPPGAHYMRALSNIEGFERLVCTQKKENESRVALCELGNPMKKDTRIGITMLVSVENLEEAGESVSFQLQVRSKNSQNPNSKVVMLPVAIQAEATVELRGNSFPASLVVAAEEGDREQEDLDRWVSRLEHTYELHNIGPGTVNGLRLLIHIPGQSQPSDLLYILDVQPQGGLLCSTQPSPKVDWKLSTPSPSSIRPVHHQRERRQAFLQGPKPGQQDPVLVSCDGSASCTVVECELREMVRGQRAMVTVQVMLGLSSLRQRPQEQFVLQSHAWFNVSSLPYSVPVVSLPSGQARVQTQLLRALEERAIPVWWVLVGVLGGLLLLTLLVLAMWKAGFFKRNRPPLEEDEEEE
Chain of α2bβ3 receptor (mouse (O54890 26-787, chain 2 of 2): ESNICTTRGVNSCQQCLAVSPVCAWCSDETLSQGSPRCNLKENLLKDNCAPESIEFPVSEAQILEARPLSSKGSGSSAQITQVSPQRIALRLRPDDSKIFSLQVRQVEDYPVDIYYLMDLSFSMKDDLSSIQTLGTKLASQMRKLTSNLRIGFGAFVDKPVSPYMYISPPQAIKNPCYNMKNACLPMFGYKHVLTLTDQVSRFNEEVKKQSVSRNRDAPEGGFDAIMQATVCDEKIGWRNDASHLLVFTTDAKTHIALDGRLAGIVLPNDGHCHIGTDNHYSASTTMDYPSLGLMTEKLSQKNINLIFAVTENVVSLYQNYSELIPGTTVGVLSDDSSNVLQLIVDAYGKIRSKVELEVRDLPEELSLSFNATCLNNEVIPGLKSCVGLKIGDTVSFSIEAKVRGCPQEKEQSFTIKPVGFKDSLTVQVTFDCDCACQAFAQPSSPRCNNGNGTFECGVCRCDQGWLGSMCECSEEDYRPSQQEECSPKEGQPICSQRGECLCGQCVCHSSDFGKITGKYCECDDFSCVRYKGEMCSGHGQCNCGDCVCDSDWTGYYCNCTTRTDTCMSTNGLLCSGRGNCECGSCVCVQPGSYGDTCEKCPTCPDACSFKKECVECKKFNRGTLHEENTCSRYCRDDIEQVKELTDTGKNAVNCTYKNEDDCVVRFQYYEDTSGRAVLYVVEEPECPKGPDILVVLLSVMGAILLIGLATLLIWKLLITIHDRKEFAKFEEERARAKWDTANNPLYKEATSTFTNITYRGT

B1: Phage encoding SLRGDGSSV (SEQ ID NO: 2) on the capsid protein (peptide)
peptide: MASMTGGQQMGTNQGKGVVAAGDKLALFLKVFGGEVLTAFARTSVTTSRHMVRSISSGKSAQFPVLGRTQAAYLAPGENLDDKRKDIKHTEKVITIDGLLTADVLIYDIEDAMNHYDVRSEYTSQLGESLAMAADGAVLAEIAGLCNVESKYNENIEGLGTATVIETTQNKAALTDQVALGKEIIAALTKARAALTKNYVPAADRVFYCDPDSYSAILAALMPNAANYAALIDPEKGSIRNVMGFEVVEVPHLTAGGAGTAREGTTGQKHVFPANKGEGNVKVAKDNVIGLFMHRSAVGTVKLRDLALERARRANFQADQIIAKYAMGHGGLRPEAAGAVVFQSGVMLNSLRGDGSSV
  phage binding in tumor (phage recovered, quantified by plaque formation): 4 fold
